The nature of this data set: label from the status in PepcDB records.
As to “MPEAPGDTPLALDLLRRLRRALGAAGLPELEAWDLLAAATGWPRKALYGRLTSPLPQEALDRAEALLKRRLQGYPLQYLVGEVEFFGLPLRVEEGVLIPRPETEGLVELALGLPLPPAPRILDVGTGTGAIALALKRALPEAEVYATEVDPKALALARENAERLGLAVVFLPAPLTGGLKDLDLVVSNPPYLPEAYREKAPRELGYESPLALYAGPEGLSVARPLAEEARRSLKPGGYLLLELAPENVHLLARELREKGWKEVAVLPDLAGRDRYLRARRPPEEAEGEEGRLHRPHLPQSLHPHPDHPGPPPEEEEALGQVRLRGEAGVLRGHALLQKALPDPFPHLQEDGPGPGLPRVEEGGAGENLPRGPQALFRVKAGPDEEDAVLVPRPLQDGKPRALGPAEKPHALEAQEEGPPPGRLFQRHGALLRAQAHLPQVEPLAQAGEAFCELALLPLQHPGLDEEALDPPLLLGELLAHPGQGLPEPGGLLLQNLPGAP”, the protein production entry is “failed”. On to “MPEEALKTYEELLELEKRIGNKREIGLTLANLAIIKDELGNVEEAIKLMEEARKIFEELKDENNYLISLIDLAHFKYELGEYEEAMKLIREVLRNPVDKEIEVNARLVESEIYAGERKYKEAAISLRNALQRSEDDEELFSLVFDSLTEFLEGLFNESRLEHHHHHH”, for which the protein production result is on record as “not failed”. Then “MPELKVVVSIKQVPDVDELRIDPVTNNLVREGVPAVINPPDLHAIEEAVRLKERYGAKTIVITMGPPQADSALREALAMGIDEAYLISDRAMAGADTWATSYTISKAVQKLGGADLILFGRRAVDGETEQVGPQTGKWLGLPVIGYVSEIKSLEKDKIVVTRTTEFDEEVIEAPVPVVLTILEVANKPRQPDILSLIKAKTAKVTVWNKDDIKAEPNKIGLAGSPTKVIKVQPPPKTRKAEIIDGKKDVEKAAKWFLDKIFESLKE”, with “failed”; and “MPELPWVEKYRPKKLSEIVNQEEAIEKVRAWIESWLHGHPPKKKALLLAGPPGSGKTTTVYALANEYNFEVIELNASDERTYEKISRYVQAAYTMDILGKRRKIIFLDEADNIEPSGAKEIAKLIDKAKNPIIMAANKYWEVPKEIREKAELVEYKRLTQRDVMNALIRILKREGITVPKEILLEIAKRSSGDLRAAINDLQTVVVGGYEDATQVLAYRDVEKTVFQALGLVFGSDNAKRAKMAMWNLDMSPDEFLLWVDENIPHLYLNPEEIAQAYDAISRADIYLGRAARTGNYSLWKYAIDMMTAGVAVAGRKRRGFVKFYPPNTLKILAESKEEREIRESIIKKIIREMHMSRLQAIETMKIIREIFENNLDLAAHFTVFLGLSEKEVEFLAGKEKAGTIWGKALALRRKLKELGIREEEKPKVEIEEEEEEEEKTEEEKEEIEEKPEEEKEEEKKEKEKPKKGKQATLFDFLKK”, with “failed”; and “MPEQQLADLSQEVAASGDSIAFAADFAVIVVVATVIGLLARQLGQPTIVAYILTGVVLGPVALDVVTQEGLVDVMAELGLGFLLFLLGLKMRFDDIREILAPITNVAIGQTVLQTALAFLVALLLGFATDEILVIALATVFGATPVIVKVLTDKDEITTLPGKIDVGVLIVQDIYLVVVLALFGAEQLGDAGEIATTLGVIFVMMSFIGLFSLASSRYLLPHLFERIANNKDVFLIVAIAWAFLFIAIAEGFDLSVEVGAFLAGLSLAQLPYSKELQDRITPITDFFILVFFASIGLQIESVGSLLTHWQEALIASVVLMVGNFWIMFYLIDREGFGPETSFLGSINMVQVSEFSLVVGALAFQQGYIGADVLGYLTLMALLTMTASTYIILYNHAIYERVAPWIRRISSGDGIDEGLPEYENHAVAIGYDEVTEKALPVLDEAFEEVVIIDRNTEHIAEIREAGEYESIFGDFRHKEVRKASNLKEAEFVLSSSVQREINEALLQETADDTPVFVEAERIADAHRLYEAGASYVVMPPHLAAEKLGEYLELYLTDQSVFHTRIQDDIEQIRRRASQATTRRRMASDTGVDLRTSGGDDD”, with “failed”.

For “MPERRTVALVTLGCARNEVDSEELAGRLEADGWQLVEDAEDADVAVVNTCGFVEAAKKDSVDALLEANDLKGHGRTQAVVAVGCMAERYGKELAEALPEADGVLGFDDYTNISDRLQTILNGGIHAAHTPRDRRKLLPISPAERQSAGADVALPGHGAPEGLPEDLPEGLAPESGPRAPLRRRLDGSPVASVKLASGCDRRCSFCAIPSFRGSFISRRPSDVLGETRWLAEQGVKEVMLVSENNTSYGKDLGDIRLLETLLPELAEVDGIERVRVSYLQPAEMRPGLIDVLTSTPKIAPYFDLSFQHSAPDVLRAMRRFGDTDRFLELLDTIRSKAPQAGVRSNFIVGFPGETEADLAELERFLTGARLDAIGVFGYSDEEGTEAATYGHKLDEDVVAARLARVSRLAEELVAQRAEERVGETVHVLVESIDDEEGAVGRAEHQAPETDGQVLFTSGEGLTVGRMVEAKVVGTEGVDLVAEPLPGSLVCTEEAGR”, the protein production entry was “failed”.

As for “MPETMHDNALTQSCTLVTSPELGTMHAMPTYIATKNGEPTAIAIESIAPDGYNGEIKVITGIDNQGKILGTRVLSHQETPGLGDKIDLRVTSWILGFTGKQVTEDNWNSWKVRKDGGDFDQFTGATITPRAVIKAVRNTVNYVNQSRDEILSQPLEHHHHHH”, the protein production result is “not failed”. Regarding “MPEVRAERYIPAPPERVYRLAKDLEGLKPYLKEVESLEVVAREGARTRSRWVAVAMGKKVRWLEEEEWDDENLRNRFFSPEGDFDRYEGTWVFLPEGEGTRVVLTLTYELTIPIFGGLLRKLVQKLMQENVESLLKGLEERVLAASS”, the protein production result is recorded as “not failed”.

As for “MPFEIGTMPIMSIDPKLLEVLACPQDKGPLKYLEAEQVLVNERLEIAYRIDDGIPVMLVDESIAWPPAEKLEHHHHHH”, the protein production result is on record as “failed”. For “MPFIYRRRVQFYETDAQGIVHHSNYFRYFEEARGEFLRSKGFPYSKMRDMGLEVVLLNAYCEYKKPLFYDDVFEVHLNLEELSRFTFTFSYIVFKEDIAVAKANTKHCMVKNGKIVSIPKEVLEVLKD”, the protein production entry is given as “not failed”. Regarding “MPFNQNVSLECYNGILSMLLNGAPLADILHALVLKIEDQRLGTHASVLLLSEDGKRVLTGAAPHLPDSYNQVIHGVEIGPEVGSCGTAAYTGQRVIVEDIEHHPYWALYKSFALVHGLRACWSEPIKDTQGKVLGTFAMYYKEIKSPTVADLTLIAEAARLASLAIERSRSLEFQRLEHHHHHH”, the protein production entry was “not failed”.

“MPFWLEVVINVAFSYLASVGFALTINVPHRALNLSGISGTVGWMAYWFCFRLGAGRMASNLIGAFLIGILGLVFARIKKCPVTVFNIPALVPLVPGMPAYQAVRAFVVGDYIQGQELILRVAIVTGAIGLGFLLSTMCTEAFYKIRYRHFRNTGLYFKRKK”: the protein production entry is given as “failed”. Take “MPGFKSDLLIKRMDNEMETWILPTIPAFESTAEIAKIYRVRHQEAIEKSSDIYHFSGFIQEQIVCSLTLTVMGDCARIDDVATFPKYQKNGYATQLILSELQILKDTNISWCFLEASADGLNIYKKIG”: the protein production result is “not failed”. For the sequence “MPGTVGVLSGARSLLLSMVASVTAAGGNAAIVGQPDIGLLAAVEMGADLSRLAMIPDPGTDPVEVAAVLIDGMDLVVLGLGGRRVTRARARAVVARARQKGCTLLVTDGDWQGVSTRLAARVCGYEITPALRGVPTPGLGRISGVRLQINGRGRLEHHHHHH”, the protein production result is listed as “failed”.
